Data reported in article PMC11009412, “Pathogenic mutations of human phosphorylation sites affect protein–protein interactions” (Nature Communications, 2024).

Test system: BirA*-FLAG-GATAD1 variants in Flp-In-293 cells
Experiment: BioID proximity labelling of full-length GATAD1 variants (SILAC)
Assay type: cell-based, human
Conditions: GATAD1 WT vs S102P, significant proteins only; for Log2_Ratio.H.L.normalized.WT_S102P_forward: forward experiment (label swap performed, sign inverted against the H/L ratio); for Log2_Ratio.H.L.normalized.WT_S102P_forward / Log2_Ratio.H.L.normalized.WT_S102P_reverse: log2 of normalized H/L ratio; for Ratio.H.L.normalized.WT_S102P_forward: forward experiment; for Log2_Ratio.H.L.normalized.WT_S102P_reverse / Ratio.H.L.normalized.WT_S102P_reverse: reverse experiment
Method in brief: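 Tetracycline-inducible Flp-In-293 T-REx lines expressing N-terminal BirA*-FLAG GATAD1 variants (WT, S102P, S102D, S102A) were SILAC-labelled, induced with 1 μg/mL tetracycline for 24 h and given 50 μM biotin overnight. Streptavidin-enriched proteins were trypsin-digested on-bead and analysed by LC-MS/MS. Label-swapped log2 SILAC ratios beyond ±1 defined differential proteins (n = 2).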

Molecule	Log2_Ratio.H.L.normalized.WT_S102P_forward	Ratio.H.L.normalized.WT_S102P_forward	Log2_Ratio.H.L.normalized.WT_S102P_reverse	Ratio.H.L.normalized.WT_S102P_reverse
ACIN1 (protein, UniProt Q9UKV3 1-1341, looked up) Apoptotic chromatin …: MWRRKHPRTSGGTRGVLSGNRGVEYGSGRGHLGTFEGRWRKLPKMPEAVGTDPSTSRKMAELEEVTLDGKPLQALRVTDLKAALEQRGLAKSGQKSALVKRLKGALMLENLQKHSTPHAAFQPNSQIGEEMSQNSFIKQYLEKQQELLRQRLEREAREAAELEEASAESEDEMIHPEGVASLLPPDFQSSLERPELELSRHSPRKSSSISEEKGDSDDEKPRKGERRSSRVRQARAAKLSEGSQPAEEEEDQETPSRNLRVRADRNLKTEEEEEEEEEEEEDDEEEEGDDEGQKSREAPILKEFKEEGEEIPRVKPEEMMDERPKTRSQEQEVLERGGRFTRSQEEARKSHLARQQQEKEMKTTSPLEEEEREIKSSQGLKEKSKSPSPPRLTEDRKKASLVALPEQTASEEETPPPLLTKEASSPPPHPQLHSEEEIEPMEGPAPAVLIQLSPPNTDADTRELLVSQHTVQLVGGLSPLSSPSDTKAESPAEKVPEESVLPLVQKSTLADYSAQKDLEPESDRSAQPLPLKIEELALAKGITEECLKQPSLEQKEGRRASHTLLPSHRLKQSADSSSSRSSSSSSSSSRSRSRSPDSSGSRSHSPLRSKQRDVAQARTHANPRGRPKMGSRSTSESRSRSRSRSRSASSNSRKSLSPGVSRDSSTSYTETKDPSSGQEVATPPVPQLQVCEPKERTSTSSSSVQARRLSQPESAEKHVTQRLQPERGSPKKCEAEEAEPPAATQPQTSETQTSHLPESERIHHTVEEKEEVTMDTSENRPENDVPEPPMPIADQVSNDDRPEGSVEDEEKKESSLPKSFKRKISVVSATKGVPAGNSDTEGGQPGRKRRWGASTATTQKKPSISITTESLKSLIPDIKPLAGQEAVVDLHADDSRISEDETERNGDDGTHDKGLKICRTVTQVVPAEGQENGQREEEEEEKEPEAEPPVPPQVSVEVALPPPAEHEVKKVTLGDTLTRRSISQQKSGVSITIDDPVRTAQVPSPPRGKISNIVHISNLVRPFTLGQLKELLGRTGTLVEEAFWIDKIKSHCFVTYSTVEEAVATRTALHGVKWPQSNPKFLCADYAEQDELDYHRGLLVDRPSETKTEEQGIPRPLHPPPPPPVQPPQHPRAEQREQERAVREQWAEREREMERRERTRSEREWDRDKVREGPRSRSRSRDRRRKERAKSKEKKSEKKEKAQEEPPAKLLDDLFRKTKAAPCIYWLPLTDSQIVQKEAERAERAKEREKRRKEQEEEEQKEREKEAERERNRQLEREKRREHSRERDRERERERERDRGDRDRDRERDRERGRERDRRDTKRHSRSRSRSTPVRDRGGRR	1.249	0.4208	1.096	2.1371
SAP30BP (protein, UniProt Q9UHR5 1-308, looked up) SAP30-binding protein: MAGKKNVLSSLAVYAEDSEPESDGEAGIEAVGSAAEEKGGLVSDAYGEDDFSRLGGDEDGYEEEEDENSRQSEDDDSETEKPEADDPKDNTEAEKRDPQELVASFSERVRNMSPDEIKIPPEPPGRCSNHLQDKIQKLYERKIKEGMDMNYIIQRKKEFRNPSIYEKLIQFCAIDELGTNYPKDMFDPHGWSEDSYYEALAKAQKIEMDKLEKAKKERTKIEFVTGTKKGTTTNATSTTTTTASTAVADAQKRKSKWDSAIPVTTIAQPTILTTTATLPAVVTVTTSASGSKTTVISAVGTIVKKAKQ	1.673	0.3135	1.201	2.2985
HN1L (protein, UniProt Q9H910 1-190, looked up) Jupiter microtubule …: MFQVPDSEGGRAGSRAMKPPGGESSNLFGSPEEATPSSRPNRMASNIFGPTEEPQNIPKRTNPPGGKGSGIFDESTPVQTRQHLNPPGGKTSDIFGSPVTATSRLAHPNKPKDHVFLCEGEEPKSDLKAARSIPAGAEPGEKGSARKAGPAKEQEPMPTVDSHEPRLGPRPRSHNKVLNPPGGKSSISFY	1.324	0.3994	1.259	2.3935
C11orf58;SMAP (protein, UniProt O00193 1-183, looked up) Small acidic protein: MSAARESHPHGVKRSASPDDDLGSSNWEAADLGNEERKQKFLRLMGAGKKEHTGRLVIGDHKSTSHFRTGEEDKKINEELESQYQQSMDSKLSGRYRRHCGLGFSEVEDHDGEGDVAGDDDDDDDDSPDPESPDDSESDSESEKEESAEELQAAEHPDEVEDPKNKKDAKSNYKMMFVKSSGS	1.333	0.3971	1.1961	2.2912
THRAP3 (protein, UniProt Q9Y2W1 2-955, looked up) Thyroid hormone …: SKTNKSKSGSRSSRSRSASRSRSRSFSKSRSRSRSLSRSRKRRLSSRSRSRSYSPAHNRERNHPRVYQNRDFRGHNRGYRRPYYFRGRNRGFYPWGQYNRGGYGNYRSNWQNYRQAYSPRRGRSRSRSPKRRSPSPRSRSHSRNSDKSSSDRSRRSSSSRSSSNHSRVESSKRKSAKEKKSSSKDSRPSQAAGDNQGDEAKEQTFSGGTSQDTKASESSKPWPDATYGTGSASRASAVSELSPRERSPALKSPLQSVVVRRRSPRPSPVPKPSPPLSSTSQMGSTLPSGAGYQSGTHQGQFDHGSGSLSPSKKSPVGKSPPSTGSTYGSSQKEESAASGGAAYTKRYLEEQKTENGKDKEQKQTNTDKEKIKEKGSFSDTGLGDGKMKSDSFAPKTDSEKPFRGSQSPKRYKLRDDFEKKMADFHKEEMDDQDKDKAKGRKESEFDDEPKFMSKVIGANKNQEEEKSGKWEGLVYAPPGKEKQRKTEELEEESFPERSKKEDRGKRSEGGHRGFVPEKNFRVTAYKAVQEKSSSPPPRKTSESRDKLGAKGDFPTGKSSFSITREAQVNVRMDSFDEDLARPSGLLAQERKLCRDLVHSNKKEQEFRSIFQHIQSAQSQRSPSELFAQHIVTIVHHVKEHHFGSSGMTLHERFTKYLKRGTEQEAAKNKKSPEIHRRIDISPSTFRKHGLAHDEMKSPREPGYKAEGKYKDDPVDLRLDIERRKKHKERDLKRGKSRESVDSRDSSHSRERSAEKTEKTHKGSKKQKKHRRARDRSRSSSSSSQSSHSYKAEEYTEETEEREESTTGFDKSRLGTKDFVGPSERGGGRARGTFQFRARGRGWGRGNYSGNNNNNSNNDFQKRNREEEWDPEYTPKSKKYYLHDDREGEGSDKWVSRGRGRGAFPRGRGRFMFRKSSTSPKWAHDKFSGEEGEIEDDESGTENREEKDNIQPTTE	1.318	0.4011	1.052	2.0733
RANBP3 (protein, UniProt Q9H6Z4 2-567, looked up) Ran-binding protein 3: ADLANEEKPAIAPPVFVFQKDKGQKSPAEQKNLSDSGEEPRGEAEAPHHGTGHPESAGEHALEPPAPAGASASTPPPPAPEAQLPPFPRELAGRSAGGSSPEGGEDSDREDGNYCPPVKRERTSSLTQFPPSQSEERSSGFRLKPPTLIHGQAPSAGLPSQKPKEQQRSVLRPAVLQAPQPKALSQTVPSSGTNGVSLPADCTGAVPAASPDTAAWRSPSEAADEVCALEEKEPQKNESSNASEEEACEKKDPATQQAFVFGQNLRDRVKLINESVDEADMENAGHPSADTPTATNYFLQYISSSLENSTNSADASSNKFVFGQNMSERVLSPPKLNEVSSDANRENAAAESGSESSSQEATPEKESLAESAAAYTKATARKCLLEKVEVITGEEAESNVLQMQCKLFVFDKTSQSWVERGRGLLRLNDMASTDDGTLQSRLVMRTQGSLRLILNTKLWAQMQIDKASEKSIRITAMDTEDQGVKVFLISASSKDTGQLYAALHHRILALRSRVEQEQEAKMPAPEPGAAPSNEEDDSDDDDVLAPSGATAAGAGDEGDGQTTGST	1.029	0.49	1.139	2.2024
